In publication PMC2711566 one finds stoichiometry N data, which are given here for two molecules.

For assay [1], the target named is GST. Briefly: native gel or EMSA. (In general: A gel shift assay detects complexes by their altered migration in electrophoresis.)
Assay [2] addresses T1, recombinant TIP47 (human), O60664.
T1 chain: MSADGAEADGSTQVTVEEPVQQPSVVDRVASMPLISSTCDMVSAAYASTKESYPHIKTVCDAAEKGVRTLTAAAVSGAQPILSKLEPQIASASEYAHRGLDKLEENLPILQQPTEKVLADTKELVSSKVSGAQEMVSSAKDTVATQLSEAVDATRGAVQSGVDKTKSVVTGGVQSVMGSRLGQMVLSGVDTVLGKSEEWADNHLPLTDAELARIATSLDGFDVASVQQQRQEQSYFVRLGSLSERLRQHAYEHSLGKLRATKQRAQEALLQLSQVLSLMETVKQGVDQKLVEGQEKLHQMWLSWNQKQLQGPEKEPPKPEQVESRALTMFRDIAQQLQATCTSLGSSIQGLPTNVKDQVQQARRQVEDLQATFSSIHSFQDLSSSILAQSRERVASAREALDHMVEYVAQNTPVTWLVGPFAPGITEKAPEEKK
Briefly: SEC. Particulars: remark: other sources report otherwise.

The stoichiometry N is a count of units in the complex or per binding partner. As to GST (natural protein), in assay [1], the stoichiometry N turned out to be 2.

B1: recombinant TIP47, O60664 1-434 (natural protein)
chain: T1 chain
As to B1, the stoichiometry N in assay [2] stood at 3.
